The nature of data set [1]: BG-Cy3 activity assay (reaction rate of AGT mutants). Type of data set: biochemical. As to the method:
Reactivity against DNA-based substrates measured with a BG-Cy3 assay: BG-Cy3 is prepared by reacting the previously described O^6-(4-aminomethyl-benzyl)guanine (Keppler et al., NatureBiotechnol. 21:86-89, 2003) with the commercially available N-hydroxysuccinimide ester of Cy3, (Cy3-NHS, Amersham). The coupling reaction is performed at ambient temperature in N,N-dimethylformamide in the presence of 1 eq. of triethylamine. The BG-Cy3 conjugate is purified by reversed-phase HPLC on a C18-column by using linear gradients from 0.1% trifluoroacetic acid to acetonitrile. After solvent evaporation BG-Cy3 is dissolved in dimethyl sulfoxide and stored at −20° C. For measuring the reactivity with DNA-based substrates, a reaction mixture containing different concentrations (0 to 5 µM) of oligonucleotide SEQ ID NO:2 (modified in position 14), GST-AGT fusion protein at 0.2 µM and BG-Cy3 at […] in reaction buffer (50 mM HEPES, pH 7.2, 1 mM DTT, 200 mg/ml BSA) is incubated in microtiterplates. Fluorescence of the Cy3 derivative (excitation 519 nm, emission at 572 nm) is measured on a Spectramax Gemini plate reader (Molecular Devices).
The amplified products are cloned in fusion to the g3 gene of filamentous phage in the vector pAK100 via SfiI restriction sites. The resulting gene libraries are used for phage display as described under Example 4. The mutants of the libraries are selected with 5 to 50 nM of BG-Bt for 10 min. Selected mutants are subcloned into pGEX using the primers SEQ ID NO:3 and SEQ ID NO:13. The reaction rate of mutant AGTs is determined as described in Example 6, Reactivity against DNA-based substrates (BG-Cy3 assay).
For the activity assay purified GST fusion proteins were used for mutants marked with “p.” (prepared as described under Example 1); periplasmic extracts were used for mutants marked with “x.” (prepared as described under Example 2).

The nature of data set [2]: Stability after reaction with BG-FL. It is filed as physicochemical. To be noted: over 7 days. The method, then: Stability before reaction is determined for the mutant AGT or for a mutant AGT fusion protein by incubating purified samples in buffered aqueous solution for up to two weeks at 4° C. and up to six months at −20° C. At several time points, aliquots are taken and concentration of reactive AGT is estimated as described by Juillerat et al., Chem Biol 10:313-317, 2003. Stability for wild type AGT and the AGT mutant after reaction with a labelled substrate and after subsequent separation from unreacted substrate is determined by quantifying the concentration of the label in the soluble fraction over up to two weeks at 4° C. and up to three months at −20° C.
Stability after reaction: The vector pBAD/H is A (Invitrogen) is modified by cloning synthetic oligonucleotides (SEQ ID NO:29 and SEQ ID NO:30) between the NcoI and HindIII sites to include a 12×His-tag and SbfI and AscI cloning sites. The gene of AGTM is amplified with primers SEQ ID NO:31 and SEQ ID NO:32 and cloned between the SbfI/AscI sites into this vector. Wild type AGT and mutant AGT (Lys125Ala, Ala127Thr, Arg128Ala, Asn157Gly, Ser159Glu) are amplified with primers SEQ ID NO:31 and SEQ ID NO:33 and cloned into this vector. Protein expression is carried out in E. coli strain Top 10. An exponentially growing culture is induced with 0.2% arabinose, and the expression is carried out for 16 hours at 28° C. The cells are lysed by adding buffer to 10 ml/g containing 0.5 M NaCl, 80 mM imidazole, 1% Triton, 250 µM PMSF, 1 mM […]-mercaptoethanol, 5 mg/ml lysozyme, 20 µg/ml DNase and stirring for 45 min. […]
The AGT proteins at 10 µM) are quantitatively reacted with fluorescein-modified O^6-benzyl-guanine (substance 5 of Juillerat et al, Chem Biol 10:313-317, 2003, BG-FL, 20 µM) and purified over a size exclusion column (Econopac 10 DG, Bio-Rad) and incubated for 7 days. […] The fluorescence of the supernatant is measured with a Victor2 fluorescence plate reader (Perkin Elmer, excitation/emission at 485/535 nm).

Data set [3] can be described thus: Reaction of two AGT variants in one sample with CPTG and BG-Bt. It is filed as biochemical. As to the method:
FIG. 2: Western blot of the reaction of wild type hAGT (GST-hAGT fusion protein) and AGTM with the two substrates N^9-cyclopentyl-O^6-bromophenyl-guanine (CPTG) and biotinylated O^6-benzylguanine (BG-Bt, substance 3a of Juillerat et al. 2003) as described in Example 7. BG-Bt is present in all samples at 5 μM. Detection with neutravidin-peroxidase conjugate and luminescent peroxidase substrate detecting any AGT reacted with BG-Bt. Even under simultaneous incubation with identical concentrations of CPTG and BG-Bt only about 5% of GST-hAGT reacts with substrate BG-Bt.
Within the experiment two tags with different size for the two AGT proteins are used: The His-tagged AGTM (˜20 kDa) and GST-hAGT (cloned and prepared as described in Example 1, but starting with the wild type hAGT gene, ˜48 kDa) are diluted to 0.2 μM and 1.2 μM final concentration, respectively, in reaction buffer containing 50 mM HEPES, 1 mM DTT, 200 mg/mL BSA (pH 7.3). The sample is incubated with a mixture of substrates N^9-cyclopentyl-O^6-bromophenyl-guanine (CPTG; 0, 5 and 10 μM final concentrations) and biotinylated O^6-benzylguanine (BG-Bt, 5 μM final concentration) for 30 minutes. The reaction is quenched by addition of SDS-Laemmli buffer and subjected to Western blotting analysis (Example 1). As the two AGT variants have different masses, the two proteins can be separated on an acrylamide gel and analyzed independently. […] At the same concentration (both substrates at 5 μM final concentration), 95% of GST-hAGT reacts with CPTG, versus only 5% of His-tagged AGTM.

B1: Wild type hAGT: wild type human O^6-alkylguanine-DNA alkyltransferase (SEQ ID NO:1); GST-hAGT is its GST fusion (protein, listed as Homo sapiens)
chain: MDKDCEMKRTTLDSPLGKLELSGCEQGLHEIKLLGKGTSAADAVEVPAPAAVLGGPEPLMQCTAWLNAYFHQPEAIEEFPVPALHHPVFQQESFTRQVLWKLLKVVKFGEVISYQQLAALAGNPKAARAVGGAMRGNPVPILIPCHRVVCSSGAVGNYSGGLAVKEWLLAHEGHRLGKPGLGGSSGLAGAWLKGAGATSGSPPAGRN
The molecule B1 came in with a kobs in data set [1] (BG-Cy3 activity assay) of 116 M⁻¹ s⁻¹. Also, the Relative reaction rate in data set [1] (divided by value for wild type hAGT, purified GST fusion proteins (p.)) is listed as 1. Besides, the “loss of soluble fluorescent protein” value in data set [2] was “about 60%”. Also, in data set [3] (CPTG and BG-Bt both at 5 μM, 30 minutes), the “fraction of protein reacting with CPTG” value worked out at 95%. Moreover, the “fraction of protein reacting with BG-Bt” value in data set [3] (simultaneous incubation with identical concentrations of CPTG and BG-Bt) is “about 5%”.

Source of the values: US7888090B2, “Mutants of O6-alkylguanine-DNA alkyltransferase” (Ecole Polytechnique Federale de Lausanne, priority 2004, dated 2011).
